Experimental data from patent US20250171562A1.

B1: NIgG4D1A1(RS) (Fc fusion)
chain 1: DVQLQESGGGLVQAGGSLRLSCAASGLTFSRCDMGWFRQAPGKEREFVARISANGASTHYADFVKGRFTISRDNAKNTVYLQMNYLKPEDTAVYICAAARVPVTWQLYDYWGQGTQVTVSRSGPPCPPCPAPEFLGGPSVFLFPPKPKDTLMISRTPEVTCVVVDVSQEDPEVQFNWYVDGVEVHNAKTKPREEQFNSTYRVVSVLTVLHQDWLNGKEYKCKVSNKGLPSSIEKTISKAKGQPREPQVYTLPPCQEEMTKNQVSLWCLVKGFYPSDIAVEWESNGQPENNYKTTPPVLDSDGSFFLYSRLTVDKSRWQEGNVFSCSVMHEALHNHYTQKSLSLSLGK
chain 2: EVQLLESGGGLVQPGGSLRLSCAASGFTFGNYDMAWVRQAPGKRPEWVSSIDTGGDITHYADSVKGRFTISRDNAKNTLYLQMNSLRPEDTAVYWCATDEEYALGPNEFDYYGQGTLVTVSSRSGPPCPPCPAPEFLGGPSVFLFPPKPKDTLMISRTPEVTCVVVDVSQEDPEVQFNWYVDGVEVHNAKTKPREEQFNSTYRVVSVLTVLHQDWLNGKEYKCKVSNKGLPSSIEKTISKAKGQPREPQVCTLPPSQEEMTKNQVSLSCAVKGFYPSDIAVEWESNGQPENNYKTTPPVLDSDGSFFLVSRLTVDKSRWQEGNVFSCSVMHEALHNHYTQKSLSLSLGK
B2: NIgG4D1A1(G4S)1 (Fc fusion)
chain 1: DVQLQESGGGLVQAGGSLRLSCAASGLTFSRCDMGWFRQAPGKEREFVARISANGASTHYADFVKGRFTISRDNAKNTVYLQMNYLKPEDTAVYICAAARVPVTWQLYDYWGQGTQVTVSGGGGSGPPCPPCPAPEFLGGPSVFLFPPKPKDTLMISRTPEVTCVVVDVSQEDPEVQFNWYVDGVEVHNAKTKPREEQFNSTYRVVSVLTVLHQDWLNGKEYKCKVSNKGLPSSIEKTISKAKGQPREPQVYTLPPCQEEMTKNQVSLWCLVKGFYPSDIAVEWESNGQPENNYKTTPPVLDSDGSFFLYSRLTVDKSRWQEGNVFSCSVMHEALHNHYTQKSLSLSLGK
chain 2: EVQLLESGGGLVQPGGSLRLSCAASGFTFGNYDMAWVRQAPGKRPEWVSSIDTGGDITHYADSVKGRFTISRDNAKNTLYLQMNSLRPEDTAVYWCATDEEYALGPNEFDYYGQGTLVTVSSGGGGSGPPCPPCPAPEFLGGPSVFLFPPKPKDTLMISRTPEVTCVVVDVSQEDPEVQFNWYVDGVEVHNAKTKPREEQFNSTYRVVSVLTVLHQDWLNGKEYKCKVSNKGLPSSIEKTISKAKGQPREPQVCTLPPSQEEMTKNQVSLSCAVKGFYPSDIAVEWESNGQPENNYKTTPPVLDSDGSFFLVSRLTVDKSRWQEGNVFSCSVMHEALHNHYTQKSLSLSLGK
B3: NIgG4D1A1(G4S)2 (Fc fusion)
chain 1: DVQLQESGGGLVQAGGSLRLSCAASGLTFSRCDMGWFRQAPGKEREFVARISANGASTHYADFVKGRFTISRDNAKNTVYLQMNYLKPEDTAVYICAAARVPVTWQLYDYWGQGTQVTVSGGGGSGGGGSGPPCPPCPAPEFLGGPSVFLFPPKPKDTLMISRTPEVTCVVVDVSQEDPEVQFNWYVDGVEVHNAKTKPREEQFNSTYRVVSVLTVLHQDWLNGKEYKCKVSNKGLPSSIEKTISKAKGQPREPQVYTLPPCQEEMTKNQVSLWCLVKGFYPSDIAVEWESNGQPENNYKTTPPVLDSDGSFFLYSRLTVDKSRWQEGNVFSCSVMHEALHNHYTQKSLSLSLGK
chain 2: EVQLLESGGGLVQPGGSLRLSCAASGFTFGNYDMAWVRQAPGKRPEWVSSIDTGGDITHYADSVKGRFTISRDNAKNTLYLQMNSLRPEDTAVYWCATDEEYALGPNEFDYYGQGTLVTVSSGGGGSGGGGSGPPCPPCPAPEFLGGPSVFLFPPKPKDTLMISRTPEVTCVVVDVSQEDPEVQFNWYVDGVEVHNAKTKPREEQFNSTYRVVSVLTVLHQDWLNGKEYKCKVSNKGLPSSIEKTISKAKGQPREPQVCTLPPSQEEMTKNQVSLSCAVKGFYPSDIAVEWESNGQPENNYKTTPPVLDSDGSFFLVSRLTVDKSRWQEGNVFSCSVMHEALHNHYTQKSLSLSLGK
B4: NIgG4D1A1(G4S)3 (Fc fusion)
chain 1: DVQLQESGGGLVQAGGSLRLSCAASGLTFSRCDMGWFRQAPGKEREFVARISANGASTHYADFVKGRFTISRDNAKNTVYLQMNYLKPEDTAVYICAAARVPVTWQLYDYWGQGTQVTVSGGGGSGGGGSGGGGSGPPCPPCPAPEFLGGPSVFLFPPKPKDTLMISRTPEVTCVVVDVSQEDPEVQFNWYVDGVEVHNAKTKPREEQFNSTYRVVSVLTVLHQDWLNGKEYKCKVSNKGLPSSIEKTISKAKGQPREPQVYTLPPCQEEMTKNQVSLWCLVKGFYPSDIAVEWESNGQPENNYKTTPPVLDSDGSFFLYSRLTVDKSRWQEGNVFSCSVMHEALHNHYTQKSLSLSLGK
chain 2: EVQLLESGGGLVQPGGSLRLSCAASGFTFGNYDMAWVRQAPGKRPEWVSSIDTGGDITHYADSVKGRFTISRDNAKNTLYLQMNSLRPEDTAVYWCATDEEYALGPNEFDYYGQGTLVTVSSGGGGSGGGGSGGGGSGPPCPPCPAPEFLGGPSVFLFPPKPKDTLMISRTPEVTCVVVDVSQEDPEVQFNWYVDGVEVHNAKTKPREEQFNSTYRVVSVLTVLHQDWLNGKEYKCKVSNKGLPSSIEKTISKAKGQPREPQVCTLPPSQEEMTKNQVSLSCAVKGFYPSDIAVEWESNGQPENNYKTTPPVLDSDGSFFLVSRLTVDKSRWQEGNVFSCSVMHEALHNHYTQKSLSLSLGK
B5: CIgG4D1A1(RS) (Fc fusion)
chain 1: GPPCPPCPAPEFLGGPSVFLFPPKPKDTLMISRTPEVTCVVVDVSQEDPEVQFNWYVDGVEVHNAKTKPREEQFNSTYRVVSVLTVLHQDWLNGKEYKCKVSNKGLPSSIEKTISKAKGQPREPQVYTLPPCQEEMTKNQVSLWCLVKGFYPSDIAVEWESNGQPENNYKTTPPVLDSDGSFFLYSRLTVDKSRWQEGNVFSCSVMHEALHNHYTQKSLSLSLGKRSDVQLQESGGGLVQAGGSLRLSCAASGLTFSRCDMGWFRQAPGKEREFVARISANGASTHYADFVKGRFTISRDNAKNTVYLQMNYLKPEDTAVYICAAARVPVTWQLYDYWGQGTQVTVS
chain 2: GPPCPPCPAPEFLGGPSVFLFPPKPKDTLMISRTPEVTCVVVDVSQEDPEVQFNWYVDGVEVHNAKTKPREEQFNSTYRVVSVLTVLHQDWLNGKEYKCKVSNKGLPSSIEKTISKAKGQPREPQVCTLPPSQEEMTKNQVSLSCAVKGFYPSDIAVEWESNGQPENNYKTTPPVLDSDGSFFLVSRLTVDKSRWQEGNVFSCSVMHEALHNHYTQKSLSLSLGKRSEVQLLESGGGLVQPGGSLRLSCAASGFTFGNYDMAWVRQAPGKRPEWVSSIDTGGDITHYADSVKGRFTISRDNAKNTLYLQMNSLRPEDTAVYWCATDEEYALGPNEFDYYGQGTLVTVSS
B6: CIgG4D1A1(G4S)1 (Fc fusion)
chain 1: GPPCPPCPAPEFLGGPSVFLFPPKPKDTLMISRTPEVTCVVVDVSQEDPEVQFNWYVDGVEVHNAKTKPREEQFNSTYRVVSVLTVLHQDWLNGKEYKCKVSNKGLPSSIEKTISKAKGQPREPQVYTLPPCQEEMTKNQVSLWCLVKGFYPSDIAVEWESNGQPENNYKTTPPVLDSDGSFFLYSRLTVDKSRWQEGNVFSCSVMHEALHNHYTQKSLSLSLGKGGGGSDVQLQESGGGLVQAGGSLRLSCAASGLTFSRCDMGWFRQAPGKEREFVARISANGASTHYADFVKGRFTISRDNAKNTVYLQMNYLKPEDTAVYICAAARVPVTWQLYDYWGQGTQVTVS
chain 2: GPPCPPCPAPEFLGGPSVFLFPPKPKDTLMISRTPEVTCVVVDVSQEDPEVQFNWYVDGVEVHNAKTKPREEQFNSTYRVVSVLTVLHQDWLNGKEYKCKVSNKGLPSSIEKTISKAKGQPREPQVCTLPPSQEEMTKNQVSLSCAVKGFYPSDIAVEWESNGQPENNYKTTPPVLDSDGSFFLVSRLTVDKSRWQEGNVFSCSVMHEALHNHYTQKSLSLSLGKGGGGSEVQLLESGGGLVQPGGSLRLSCAASGFTFGNYDMAWVRQAPGKRPEWVSSIDTGGDITHYADSVKGRFTISRDNAKNTLYLQMNSLRPEDTAVYWCATDEEYALGPNEFDYYGQGTLVTVSS
B7: CIgG4D1A1(G4S)2 (Fc fusion)
chain 1: GPPCPPCPAPEFLGGPSVFLFPPKPKDTLMISRTPEVTCVVVDVSQEDPEVQFNWYVDGVEVHNAKTKPREEQFNSTYRVVSVLTVLHQDWLNGKEYKCKVSNKGLPSSIEKTISKAKGQPREPQVYTLPPCQEEMTKNQVSLWCLVKGFYPSDIAVEWESNGQPENNYKTTPPVLDSDGSFFLYSRLTVDKSRWQEGNVFSCSVMHEALHNHYTQKSLSLSLGKGGGGSGGGGSDVQLQESGGGLVQAGGSLRLSCAASGLTFSRCDMGWFRQAPGKEREFVARISANGASTHYADFVKGRFTISRDNAKNTVYLQMNYLKPEDTAVYICAAARVPVTWQLYDYWGQGTQVTVS
chain 2: GPPCPPCPAPEFLGGPSVFLFPPKPKDTLMISRTPEVTCVVVDVSQEDPEVQFNWYVDGVEVHNAKTKPREEQFNSTYRVVSVLTVLHQDWLNGKEYKCKVSNKGLPSSIEKTISKAKGQPREPQVCTLPPSQEEMTKNQVSLSCAVKGFYPSDIAVEWESNGQPENNYKTTPPVLDSDGSFFLVSRLTVDKSRWQEGNVFSCSVMHEALHNHYTQKSLSLSLGKGGGGSGGGGSEVQLLESGGGLVQPGGSLRLSCAASGFTFGNYDMAWVRQAPGKRPEWVSSIDTGGDITHYADSVKGRFTISRDNAKNTLYLQMNSLRPEDTAVYWCATDEEYALGPNEFDYYGQGTLVTVSS
B8: CIgG4D1A1(G4S)3 (Fc fusion)
chain 1: GPPCPPCPAPEFLGGPSVFLFPPKPKDTLMISRTPEVTCVVVDVSQEDPEVQFNWYVDGVEVHNAKTKPREEQFNSTYRVVSVLTVLHQDWLNGKEYKCKVSNKGLPSSIEKTISKAKGQPREPQVYTLPPCQEEMTKNQVSLWCLVKGFYPSDIAVEWESNGQPENNYKTTPPVLDSDGSFFLYSRLTVDKSRWQEGNVFSCSVMHEALHNHYTQKSLSLSLGKGGGGSGGGGSGGGGSDVQLQESGGGLVQAGGSLRLSCAASGLTFSRCDMGWFRQAPGKEREFVARISANGASTHYADFVKGRFTISRDNAKNTVYLQMNYLKPEDTAVYICAAARVPVTWQLYDYWGQGTQVTVS
chain 2: GPPCPPCPAPEFLGGPSVFLFPPKPKDTLMISRTPEVTCVVVDVSQEDPEVQFNWYVDGVEVHNAKTKPREEQFNSTYRVVSVLTVLHQDWLNGKEYKCKVSNKGLPSSIEKTISKAKGQPREPQVCTLPPSQEEMTKNQVSLSCAVKGFYPSDIAVEWESNGQPENNYKTTPPVLDSDGSFFLVSRLTVDKSRWQEGNVFSCSVMHEALHNHYTQKSLSLSLGKGGGGSGGGGSGGGGSEVQLLESGGGLVQPGGSLRLSCAASGFTFGNYDMAWVRQAPGKRPEWVSSIDTGGDITHYADSVKGRFTISRDNAKNTLYLQMNSLRPEDTAVYWCATDEEYALGPNEFDYYGQGTLVTVSS

target: mixture of three Der p 2 specific recombinant human IgE clones H10, H12, P4E (human) (UniProt P01854); assay: RBL-SX38 IgE displacement, FACS
Sequence (P01854 other isoform, or with tags, fused parts or gaps): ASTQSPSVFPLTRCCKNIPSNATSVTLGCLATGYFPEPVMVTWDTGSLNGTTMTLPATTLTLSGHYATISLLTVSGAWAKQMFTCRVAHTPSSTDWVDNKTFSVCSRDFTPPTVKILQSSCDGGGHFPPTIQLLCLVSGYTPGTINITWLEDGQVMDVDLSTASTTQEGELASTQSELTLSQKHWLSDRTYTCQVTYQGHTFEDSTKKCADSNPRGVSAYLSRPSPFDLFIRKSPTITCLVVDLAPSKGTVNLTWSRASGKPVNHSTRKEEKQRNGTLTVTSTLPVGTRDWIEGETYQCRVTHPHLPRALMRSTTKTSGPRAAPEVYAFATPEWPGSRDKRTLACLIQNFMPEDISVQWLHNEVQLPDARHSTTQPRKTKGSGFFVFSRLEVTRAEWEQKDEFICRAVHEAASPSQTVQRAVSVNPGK

B1 and B2 are within 1.5-fold of each other in EC50: 1.6 nM for the first, 1.4 nM for the second.

B3 and B4 are within 1.5-fold of each other in EC50: 1.6 nM for the first, 2 nM for the second.

B6 and B7 are within 1.5-fold of each other in EC50: 65.8 nM for the first, 87.2 nM for the second.

B8 was tested, and the EC50 was 64.6 nM.

First: B1
Second: B2
The Max effect/effect 1 µM of the first is lower: 97% for the first, 99% for the second.

Compared with B3, B4 is lower in Max effect/effect 1 µM: 100% for the first, 99% for the second.

Compared with B5, B6 is higher in Max effect/effect 1 µM: 16% for the first, 96% for the second.

B7 and B8 are the same in Max effect/effect 1 µM: 96% for the first, 96% for the second.
